# ± gives the uncertainty stated by the source.
# Experiment: abundance fitness (aPCA) (normalised: wild type 0, dead -1); higher = more abundant; growth selection in yeast, the domain comes from the species named
# Conditions: Homo sapiens
row,Substance,abundance fitness
1,"Ventral anterior homeobox 1 F119A, Q5SQQ9",-0.74 ± 0.21
2,"Ventral anterior homeobox 1 F119E, Q5SQQ9",-1.16 ± 0.3
3,"Ventral anterior homeobox 1 F119G, Q5SQQ9",-0.857 ± 0.16
4,"Ventral anterior homeobox 1 F119K, Q5SQQ9",-0.837 ± 0.31
5,"Ventral anterior homeobox 1 F119N, Q5SQQ9",-0.658 ± 0.32
6,"Ventral anterior homeobox 1 F119P, Q5SQQ9",-0.978 ± 0.34
7,"Ventral anterior homeobox 1 F119Q, Q5SQQ9",-0.727 ± 0.39
8,"Ventral anterior homeobox 1 F119R, Q5SQQ9",-0.88 ± 0.17
9,"Ventral anterior homeobox 1 F119S, Q5SQQ9",-0.64 ± 0.18
10,"Ventral anterior homeobox 1 F119T, Q5SQQ9",-0.856 ± 0.29
11,"Ventral anterior homeobox 1 L115D, Q5SQQ9",-0.822 ± 0.4
12,"Ventral anterior homeobox 1 L115E, Q5SQQ9",-0.719 ± 0.29
13,"Ventral anterior homeobox 1 L115G, Q5SQQ9",-0.763 ± 0.16
14,"Ventral anterior homeobox 1 L115K, Q5SQQ9",-0.821 ± 0.41
15,"Ventral anterior homeobox 1 L115N, Q5SQQ9",-0.637 ± 0.35
16,"Ventral anterior homeobox 1 L115R, Q5SQQ9",-0.918 ± 0.16
17,"Ventral anterior homeobox 1 Q111A, Q5SQQ9",-0.226 ± 0.13
18,"Ventral anterior homeobox 1 Q111C, Q5SQQ9",-0.214 ± 0.18
19,"Ventral anterior homeobox 1 Q111D, Q5SQQ9",-0.564 ± 0.18
20,"Ventral anterior homeobox 1 Q111E, Q5SQQ9",-0.393 ± 0.17

row,Substance,abundance fitness
1,"Ventral anterior homeobox 1 Q111F, Q5SQQ9",-0.954 ± 0.32
2,"Ventral anterior homeobox 1 Q111G, Q5SQQ9",-0.715 ± 0.11
3,"Ventral anterior homeobox 1 Q111H, Q5SQQ9",-0.355 ± 0.17
4,"Ventral anterior homeobox 1 Q111I, Q5SQQ9",-0.231 ± 0.27
5,"Ventral anterior homeobox 1 Q111K, Q5SQQ9",-0.599 ± 0.28
6,"Ventral anterior homeobox 1 Q111L, Q5SQQ9",-0.807 ± 0.17
7,"Ventral anterior homeobox 1 Q111M, Q5SQQ9",-0.31 ± 0.19
8,"Ventral anterior homeobox 1 Q111N, Q5SQQ9",-0.262 ± 0.24
9,"Ventral anterior homeobox 1 Q111P, Q5SQQ9",-0.716 ± 0.21
10,"Ventral anterior homeobox 1 Q111R, Q5SQQ9",-0.732 ± 0.12
11,"Ventral anterior homeobox 1 Q111S, Q5SQQ9",-0.727 ± 0.14
12,"Ventral anterior homeobox 1 Q111T, Q5SQQ9",-0.068 ± 0.16
13,"Ventral anterior homeobox 1 Q111V, Q5SQQ9",-0.048 ± 0.12
14,"Ventral anterior homeobox 1 Y113D, Q5SQQ9",0.287 ± 0.2
15,"Ventral anterior homeobox 1 Y113E, Q5SQQ9",0.209 ± 0.17
16,"Ventral anterior homeobox 1 Y113G, Q5SQQ9",0.01 ± 0.093
17,"Ventral anterior homeobox 1 Y113H, Q5SQQ9",-0.096 ± 0.25
18,"Ventral anterior homeobox 1 Y113K, Q5SQQ9",-0.004 ± 0.24
19,"Ventral anterior homeobox 1 Y113N, Q5SQQ9",0.168 ± 0.38
20,"Ventral anterior homeobox 1 Y113R, Q5SQQ9",-0.012 ± 0.097

# — the Human Domainome abundance scans (Beltran et al. 2025)
